Assay results published in FireProtDB.
Where “and” joins values, the source holds several entries; their conditions need not be identical. Equal entries are not always repeated.

B1: Colicin-E1, P02978 (parent)
chain: METAVAYYKDGVPYDDKGQVIITLLNGTPDGSGSGGGGGKGGSKSESSAAIHATAKWSTAQLKKTQAEQAARAKAAAEAQAKAKANRDALTQRLKDIVNEALRHNASRTPSATELAHANNAAMQAEDERLRLAKAEEKARKEAEAAEKAFQEAEQRRKEIEREKAETERQLKLAEAEEKRLAALSEEAKAVEIAQKKLSAAQSEVVKMDGEIKTLNSRLSSSIHARDAEMKTLAGKRNELAQASAKYKELDELVKKLSPRANDPLQNRPFFEATRRRVGAGKIREEKQKQVTASETRINRINADITQIQKAISQVSNNRNAGIARVHEAEENLKKAQNNLLNSQIKDAVDATVSFYQTLTEKYGEKYSKMAQELADKSKGKKIGNVNEALAAFEKYKDVLNKKFSKADRDAIFNALASVKYDDWAKHLDQFAKYLKITGHVSFGYDVVSDILKIKDTGDWKPLFLTLEKKAADAGVSYVVALLFSLLAGTTLGIWGIAIVTGILCSYIDKNKLNTINEVLGI
B2: Tryptophan synthase alpha chain, P00929 (parent)
chain: MERYENLFAQLNDRREGAFVPFVTLGDPGIEQSLKIIDTLIDAGADALELGVPFSDPLADGPTIQNANLRAFAAGVTPAQCFEMLALIREKHPTIPIGLLMYANLVFNNGIDAFYARCEQVGVDSVLVADVPVEESAPFRQAALRHNIAPIFICPPNADDDLLRQVASYGRGYTYLLSRSGVTGAENRGALPLHHLIEKLKEYHAAPALQGFGISSPEQVSAAVRAGAAGAISGSAIVKIIEKNLASPKQMLAELRSFVSAMKAASRA
B3: Inorganic pyrophosphatase, P0A7A9 (parent)
chain: MSLLNVPAGKDLPEDIYVVIEIPANADPIKYEIDKESGALFVDRFMSTAMFYPCNYGYINHTLSLDGDPVDVLVPTPYPLQPGSVIRCRPVGVLKMTDEAGEDAKLVAVPHSKLSKEYDHIKDVNDLPELLKAQIAHFFEHYKDLEKGKWVKVEGWENAEAAKAEIVASFERAKNK
B4: chitinase, Q54276 (parent)
chain: MSTRKAVIGYYFIPTNQINNYTETDTSVVPFPVSNITPAKAKQLTHINFSFLDINSNLECAWDPATNDAKARDVVNRLTALKAHNPSLRIMFSIGGWYYSNDLGVSHANYVNAVKTPASRAKFAQSCVRIMKDYGFDGVDIDWEYPQAAEVDGFIAALQEIRTLLNQQTITDGRQALPYQLTIAGAGGAFFLSRYYSKLAQIVAPLDYINLMTYDLAGPWEKVTNHQAALFGDAAGPTFYNALREANLGWSWEELTRAFPSPFSLTVDAAVQQHLMMEGVPSAKIVMGVPFYGRAFKGVSGGNGGQYSSHSTPGEDPYPSTDYWLVGCEECVRDKDPRIASYRQLEQMLQGNYGYQRLWNDKTKTPYLYHAQNGLFVTYDDAESFKYKAKYIKQQQLGGVMFWHLGQDNRNGDLLAALDRYFNAADYDDSQLDMGTGLRYTGVGPGNLPIMTAPAYVPGTTYAQGALVSYQGYVWQTKWGYITSAPGSDSAWLKVGRVA
B5: L-asparaginase 2, P00805 (parent)
chain: MEFFKKTALAALVMGFSGAALALPNITILATGGTIAGGGDSATKSNYTVGKVGVENLVNAVPQLKDIANVKGEQVVNIGSQDMNDNVWLTLAKKINTDCDKTDGFVITHGTDTMEETAYFLDLTVKCDKPVVMVGAMRPSTSMSADGPFNLYNAVVTAADKASANRGVLVVMNDTVLDGRDVTKTNTTDVATFKSVNYGPLGYIHNGKIDYQRTPARKHTSDTPFDVSKLNELPKVGIVYNYANASDLPAKALVDAGYDGIVSAGVGNGNLYKSVFDTLATAAKTGTAVVRSSRVPTGATTQDAEVDDAKYGFVASGTLNPQKARVLLQLALTQTKDPQQIQQIFNQY
B6: Persulfide dioxygenase ETHE1, mitochondrial, O95571 (parent)
chain: MAEAVLRVARRQLSQRGGSGAPILLRQMFEPVSCTFTYLLGDRESREAVLIDPVLETAPRDAQLIKELGLRLLYAVNTHCHADHITGSGLLRSLLPGCQSVISRLSGAQADLHIEDGDSIRFGRFALETRASPGHTPGCVTFVLNDHSMAFTGDALLIRGCGRTDFQQGCAKTLYHSVHEKIFTLPGDCLIYPAHDYHGFTVSTVEEERTLNPRLTLSCEEFVKIMGNLNLPKPQQIDFAVPANMRCGVQTPTA
B7: Dihydrofolate reductase type 2, P00383 (parent)
chain: MERSSNEVSNPVAGNFVFPSNATFGMGDRVRKKSGAAWQGQIVGWYCTNLTPEGYAVESEAHPGSVQIYPVAALERIN
B8: Chemotaxis protein CheY, P0AE67 (parent)
chain: MADKELKFLVVDDFSTMRRIVRNLLKELGFNNVEEAEDGVDALNKLQAGGYGFVISDWNMPNMDGLELLKTIRADGAMSALPVLMVTAEAKKENIIAAAQAGASGYVVKPFTAATLEEKLNKIFEKLGM
B9: E188K|A142V|H125Y, Q88HV5 (parent)
chain: MPFQQGLLATPVPAHARHLFFTLQSPEALPAALDALLPQVDGKQLLLGVGAPLAKALGREIPGLRPFPLLDAAVENPSTQHALWLWLRGDERGDLLLRTQALEQALAPALSLADSVDGFLHRGGHDLTGYEDGTENPTDEEAVQAAIAADGSSFAAFQLWKHDLQYFKSLPQADQDNIIGRRLSDNEELDDAPASAHVKRTAQESFEPEAFMVRRSVSWADQRGAGLAFVALGKSFEAFEVQLRRMSGLEDGIIDGLYRFSRPLTGGYYWCPPMSETGVDLSPLLRA
B10: Guanyl-specific ribonuclease T1, P00651 (parent)
chain: MMYSKLLTLTTLLLPTALALPSLVERACDYTCGSNCYSSSDVSTAQAAGYQLHEDGETVGSNSYPHKYNNYEGFDFSVSSPYYEWPILSSGDVYSGGSPGADRVVFNENNQLAGVITHTGASGNNFVECT

Variants of: B1
Conditions: Escherichia coli; pH 6; 22 °C; Urea; Fluorescence; dimethylglutaric acid 10 mM; NaCl 100 mM; reversible: yes; structure 2I88; whole UniProt chain shown

Variant | denaturant midpoint (higher = more stable)
F355T | 4.9 M
Y367W | 4.9 M
F404W | 4.8 M
F413W | 5.7 M
W424F W460F | 5.3 M
W424F W495F | 6.1 M
F431W | 5.8 M
F443W | 5.5 M
W460F W495F | 6.1 M
F484W | 4.6 M
Y507W | 5.7 M

Variants of: B2
Conditions: Salmonella typhimurium (strain LT2 / SGSC1412 / ATCC 700720); pH 7.8; Thermal; Enzyme activity; sodium N/N-bis(2-hydroxyethyl)glycine 0.05 M; structure 2WSY; whole UniProt chain shown

Variant | Tm | change of melting temperature, mutant - wild type (higher = more stable)
C118S | 41 °C | -5 °C

Variants of: B3
Conditions: Escherichia coli (strain K12); pH 7; Thermal; CD; HEPES 20 mM; MgCl2 5 mM; structure 1FAJ; whole UniProt chain shown

Variant | Tm
D27N | 83 °C

Same assay, conditions: Escherichia coli (strain K12); pH 7; Thermal; CD; HEPES 20 mM; structure 1FAJ; whole UniProt chain shown

Variant | Tm
D27N | 58 °C

Variants of: B4
Conditions: Serratia marcescens; pH 8; Thermal; CD; sodium phosphate 20 mM; reversible: No; structure 1E6N; whole UniProt chain shown

Variant | Tm | change of melting temperature, mutant - wild type (higher = more stable)
G188A A234P | 64.1 °C | 4.2 °C

Variants of: B5
Conditions: Escherichia coli (strain K12); pH 7.4; 25 °C; Urea; Fluorescence; Tris-HCl 50 mM; structure 3ECA; whole UniProt chain shown

Variant | unfolding free energy
S144A | 12.4 kcal/mol
T141A | 11.5 kcal/mol
T34A | 11.5 kcal/mol
T34S | 11.2 kcal/mol

Variants of: B6
Conditions: Homo sapiens; pH 7.5; Thermal; CD; Tris-HCl 50mM; NaCl 150mM; transition: 2; structure 4CHL; whole UniProt chain shown

Variant | Tm | change of melting temperature, mutant - wild type (higher = more stable)
R163Q | 55 °C | -7 °C
R163W | 52 °C | -10 °C

Variants of: B7
Conditions: Escherichia coli; pH 5; 22 °C; GdnHCl; CD; phosphate 10 mM; structure 1VIE; whole UniProt chain shown

Variant | unfolding free energy
W38F | 15.3 kcal/mol and 15.6 kcal/mol
W45F | 13.6 kcal/mol and 12.7 kcal/mol

Variants of: B8
Conditions: Escherichia coli (strain K12); pH 7; 25 °C; Urea; Fluorescence; Cacodylate 100 mM; structure 1CEY; whole UniProt chain shown

Variant | ddG of mutation (higher = less stable) | unfolding free energy
D12A | -2.5 kcal/mol | 8.1 kcal/mol
D13A | -2.7 kcal/mol | 8.3 kcal/mol
D57A | -3.3 kcal/mol | 8.9 kcal/mol

Variants of: B9
Conditions: Pseudomonas putida (strain ATCC 47054 / DSM 6125 / CFBP 8728 / NCIMB 11950 / KT2440); pH 7.6; Fluorescence spectroscopy; whole UniProt chain shown

Variant | Tm
E188K A142V H125Y | 59 °C
E188K H125Y | 61 °C

Variants of: B10
Conditions: Aspergillus oryzae (strain ATCC 42149 / RIB 40); pH 5; 10 °C; GdnHCl; CD; Na acetate 0.1 M; structure 1RN1; whole UniProt chain shown

Variant | denaturant m value | unfolding free energy
S80G P81N | 2.8 kcal/mol/M | 11.2 kcal/mol

Same assay, conditions: Aspergillus oryzae (strain ATCC 42149 / RIB 40); pH 8; 15 °C; Urea; Absorbance; Tris-HCl 0.1 M; NaCl 2.8 M; structure 1RN1; whole UniProt chain shown

Variant | unfolding free energy
S80G P81N | 5.98 kcal/mol

Same assay, conditions: Aspergillus oryzae (strain ATCC 42149 / RIB 40); pH 8; 15 °C; Urea; CD; Tris-HCl 0.1 M; NaCl 2.5 M; structure 1RN1; whole UniProt chain shown

Variant | unfolding free energy
S80G P81N | 2.44 kcal/mol

Same assay, conditions: Aspergillus oryzae (strain ATCC 42149 / RIB 40); pH 7; 25 °C; Thermal; CD; MOPS 30 mM; structure 1RN1; whole UniProt chain shown

Variant | ddG of mutation (higher = less stable)
D75H | -1.1 kcal/mol

Same assay, conditions: Aspergillus oryzae (strain ATCC 42149 / RIB 40); pH 7; 25 °C; Urea; Fluorescence; MOPS 30 mM; structure 1RN1; whole UniProt chain shown

Variant | ddG of mutation (higher = less stable) | denaturant m value | denaturant midpoint (higher = more stable) | unfolding free energy
Q51K | -0.77 kcal/mol | 1.21 kcal/mol/M | 5.3 M | 6.39 kcal/mol
E84A | 0.9 kcal/mol | 1.2 kcal/mol/M | 3.92 M | 4.72 kcal/mol

Same assay, conditions: Aspergillus oryzae (strain ATCC 42149 / RIB 40); pH 7; 48.6 °C; Thermal; Fluorescence; MOPS 30 mM; structure 1RN1; whole UniProt chain shown

Variant | ddG of mutation (higher = less stable)
Q51K | -0.93 kcal/mol
E84A | 0.78 kcal/mol
Q51K E84A | -0.06 kcal/mol

Same assay, conditions: Aspergillus oryzae (strain ATCC 42149 / RIB 40); pH 7; Thermal; Fluorescence; MOPS 30 mM; structure 1RN1; whole UniProt chain shown

Variant | Tm | change of melting temperature, mutant - wild type (higher = more stable) | unfolding enthalpy (van 't Hoff)
Q51K | 51.7 °C | 3.4 °C | 107 kcal/mol
Q51K E84A | 48.8 °C | -0.5 °C | 93 kcal/mol

Same assay, conditions: Aspergillus oryzae (strain ATCC 42149 / RIB 40); pH 7; Thermal; Absorbance; Sodium cacodylate 10 mM; reversible: yes; structure 1RN1; whole UniProt chain shown

Variant | Tm | change of melting temperature, mutant - wild type (higher = more stable)
Y71W W85Y | 53.1 °C | -4.5 °C
W85Y | 53.4 °C | -4.2 °C
Y71W | 56 °C | -1.6 °C

Same assay, conditions: Aspergillus oryzae (strain ATCC 42149 / RIB 40); pH 7; Thermal; Absorbance; Sodium cacodylate-D2O 100 mM; reversible: yes; structure 1RN1; whole UniProt chain shown

Variant | Tm | change of melting temperature, mutant - wild type (higher = more stable)
W85Y | 65 °C | 20 °C

Same assay, conditions: Aspergillus oryzae (strain ATCC 42149 / RIB 40); pH 7.4; 25 °C; Urea; Fluorescence; Sodium acetate 50 mM; reversible: yes; structure 1RN1; whole UniProt chain shown

Variant | denaturant m value | denaturant midpoint (higher = more stable) | unfolding free energy
A47G | 1.3 kcal/mol/M | 5.5 M | 7.1 kcal/mol
